{"source": "patent US11400156B2", "about": "“Methods of preventing secondary infections” (Yeda Research and Development Co. Ltd., priority 2015, dated 2022)", "key": {"[1]": {"tested_on": "influenza A/Puerto Rico/8/34 (A/PR/8/34, H1N1)", "assay_type": "in vivo, C57BL/6J mice"}, "[2]": {"tested_on": "influenza A/Puerto Rico/8/34 (A/PR/8/34, H1N1)", "assay_type": "in vivo, C57BL/6J mice", "remark": "listed apart in the source"}, "[3]": {"tested_on": "PR8 influenza virus followed by S. pneumoniae", "assay_type": "in vivo, C57BL/6J mice"}, "[4]": {"tested_on": "S. pneumoniae", "assay_type": "in vivo, C57BL/6J mice"}, "[5]": {"tested_on": "collagenolytic activity in lung section", "design": "species or system C57BL/6J mice", "conditions": "mouse, in vivo"}, "[6]": {"tested_on": "influenza A/Puerto Rico/8/34 (A/PR/8/34, H1N1)", "assay_type": "in vivo, C57BL/6J mice", "remark": "listed apart in the source"}, "[7]": {"molecular_target": "MT1-MMP (Homo sapiens, UniProt P50281)", "conditions": "cited from earlier work"}, "[8]": {"conditions": "sub-lethal PR8 influenza, 74 hours post infection"}, "[9]": {"conditions": "influenza-infected mice, versus control treated"}}, "note": "Like-named read-outs stand apart in the source and are kept apart here.", "data": [{"molecule": "CCOC(=O)C1=C[C@@H](OC(CC)CC)[C@H](NC(C)=O)[C@@H](N)C1", "note": "[Tamiflu, Oseltamivir phosphate, reference compound]", "values": [{"measurement": "tissue integrity, ECM morphology and collagen structure (AirSEM)", "setting": "[1]; mouse, in vivo", "result": "same destructive lung tissue and ECM phenotypes were observed"}, {"measurement": "reduction of viral burden in whole-lung homogenates (qPCR)", "setting": "[2]; versus vehicle-treated mice", "result": "10-100 fold"}, {"measurement": "alveolar and bronchial structures / collateral damage in lung ECM (AirSEM)", "setting": "[3]; mouse, in vivo", "result": "ineffective in preventing collateral damage in the lung ECM"}, {"measurement": "survival rates and clinical scores, preventive treatment (comparison in words)", "setting": "[3]; mouse, in vivo", "result": "same survival rates and clinical scores as the group that received anti-MT1-MMP"}, {"measurement": "survival, therapeutic treatment", "setting": "[3]; mouse, in vivo", "result": 20, "unit": "%"}, {"measurement": "bacteremia and dissemination of S. pneumoniae from lungs to systemic circulation and spleen", "setting": "[4]; mouse, in vivo", "result": "developed sepsis"}]}, {"molecule": "LEM 2/15: selective allosteric inhibitory antibody of MT1-MMP from LEM-2/15 hybridoma cells; Fab fragment given to mice at 3 mg/kg (antibody, V domains shown, Fab fragment; LEM-2/15.8 antibody VH amino acid sequence; LEM-2/15.8 antibody VL amino acid sequence) VL: LVIDVLMTQTPLSLPVGLGDQASISCRSSQSIVHSNGNTYLEWYLQKPGQSPKLLIYKVSNRFSGVPDRFSGSGSGTDFTLKISRVEAEDLGVYYCFQGSHAPYTFGGGTKLEIKR VH: EVKLVESGGGLVKPGGSLKLSCAASGFIFSNYAMSWVRQTPEKRLEWVATISGGGRNIYSLDSVKGRFTFFRDNARNTLYLQMSSLRSEDTAMYFCSRENYGSSFTYWGQGTLVTVS", "values": [{"measurement": "collagen type I fibers (two-photon second harmonic generation, 3D analysis)", "setting": "[1]; [8]", "result": "more abundant"}, {"measurement": "laminin degradation in infected lungs (immunostaining)", "setting": "[1]; [8]", "result": "protected laminin"}, {"measurement": "tissue integrity, ECM morphology and collagen structure (AirSEM)", "setting": "[1]; [8]", "result": "protected tissue integrity"}, {"measurement": "proteolysis by functional in situ zymography", "setting": "[5]", "result": "significant attenuation of proteolysis"}, {"measurement": "recruitment of macrophages and neutrophils to infected lungs (FACS)", "setting": "[6]; 74 hours post-infection, versus control antibody", "result": "no detectable differences"}, {"measurement": "IL-1β level in BALF", "setting": "[6]; [9]", "result": "strongly induced in influenza-infected mice regardless of MT1-MMP activity"}, {"measurement": "TNF-α level in BALF", "setting": "[6]; [9]", "result": "strongly induced in influenza-infected mice regardless of MT1-MMP activity"}, {"measurement": "effect on viral burden, early phases of infection", "setting": "[2]; 24 hours post infection", "result": "minimal effect"}, {"measurement": "effect on viral burden, later stages", "setting": "[2]; later stages of infection", "result": "no effect was discernible"}, {"measurement": "survival rates and clinical scores, preventive treatment (comparison in words)", "setting": "[3]; co-infection, treatment one day before infection (-1)", "result": "equally effective in preventing co-infection induced mortality"}, {"measurement": "survival, therapeutic treatment", "setting": "[3]; co-infection, treatment one day post infection (+1)", "result": 70, "unit": "%"}, {"measurement": "bacteremia and dissemination of S. pneumoniae from lungs to systemic circulation and spleen", "setting": "[4]; co-infected mice, 2 days post bacterial infection, listed as MT1-MMP inhibitory antibody", "result": "reduced spread of bacteria"}, {"measurement": "bacteremia and dissemination of S. pneumoniae from lungs to systemic circulation and spleen", "setting": "[4]; co-infected mice, 2 days post bacterial infection, listed as anti-MT1-MMP inhibitor", "result": "did not develop systemic bacterial dissemination"}, {"measurement": "concentration at which the inhibitory antibody of MT1-MMP is effective", "setting": "[7]; inhibits collagenase activity of MT1-MMP expressed on the cell surface", "result": "nano-molar concentrations"}, {"measurement": "interference with proMMP-2 activation and enzyme dimerization on the cell surface", "setting": "[7]; selectivity of inhibition", "result": "without significantly interfering"}]}]}
